Measured values reported in US11618906B2, “Hydroxylation techniques” (HYPHA DISCOVERY LTD., priority 2018, dated 2023).
Changes are numbered by the printed parent chain. Names may count otherwise.

B1: aluC09M34: cytochrome P450 aluC09 mutant T291M; amino acid sequence SEQ ID NO: 48 (protein, listed as Amycolatopsis lurida)
chain: MTDVEETTATLPLARKCPFSPPPEYERLRRESPVSRVGLPSGQTAWALTRLEDIREMLSSPHFSSDRQSPSFPLMVARQIRREDKPFRPSLIAMDPPEHSRARRDVVGEFTVKRMKALQPRIQQIVDEHLDALLAGPKPADLVQALSLPVPSLVICELLGVPYSDHEFFQSCSSRMLSREVTAEERMTAFEQLENYLDELVTKKEANATEDDLLGRQILKQRETGEADHGELVGLAFLLLIAGHETTANMISLGTVTLLENPDQLAKIKADPGKTLAAIEELLRVFTIAEMATSRFATADVEIGGTLIRAGEGVVGLSNAGNHDPDGFENPDTFDIERGARHHVAFGFGVHQCLGQNLARLELQIVFDTLFRRVPGLRIAVPVDELPFKHDSTIYGLHALPVTW
B2: aluC09M19: cytochrome P450 aluC09 mutant T291A; amino acid sequence SEQ ID NO: 24 (protein, listed as Amycolatopsis lurida)
chain: B1 chain with M291A
B3: aluC09M20: cytochrome P450 aluC09 mutant T291V; amino acid sequence SEQ ID NO: 28 (protein, listed as Amycolatopsis lurida)
chain: B1 chain with M291V
B4: aluC09M11: cytochrome P450 aluC09 mutant T291D; amino acid sequence SEQ ID NO: 8 (protein, listed as Amycolatopsis lurida)
chain: B1 chain with M291D

Experiment: Hydroxylation of diclofenac catalysed by cytochrome P450 aluC09 and mutants (UPLC-PDA-MS)
Type: biochemical
Conditions: % by UV peak area at 275 nm; 0.125 mg/ml substrate, 27° C., 16-20 hours
Procedure: (§1) Lyophilised material of mutants of CYP450aluC09, ferredoxinaluF03 and ferredoxin reductaseSCF15A was made as described in examples 3 and 4 and suspended in water (0.5 mL per vial) and biocatalysis was performed at 27° C. in the following conditions: 50 mM potassium phosphate pH 7.4, 5 mM MgCl2, 0.125 mg/ml substrate compound such as diclofenac (Sigma-Aldrich, UK), Aceclofenac (Tokyo Chemical Industry UK Ltd, UK), Indomethacin (Sigma-Aldrich, UK), Flufenamic acid (Sigma-Aldrich, UK), Napropamide (Sigma-Aldrich, UK), celecoxib (LC Laboratories, USA), valsartan (Tokyo Chemical Industry UK Ltd, UK), ruxolitinib (LC Laboratories, USA), 4-pyrrolidylacetophenone (Sigma-Aldrich, UK), tofacitinib (LC Laboratories, USA), bosentan (CarboSynth Ltd, UK), buparvaquone (MedChemtronica, Sweden), BIRB796 (Stratech Scientific Limited, UK), epothilone B (LC Laboratories, USA), ritonavir (Tokyo Chemical Industry UK Ltd, UK) or tivantinib (MedChemtronica, Sweden), P450AluC09 (concentration as in Table 8), 5 mM G6P, 1 mM NADP, 2 UN/ml G6PDH in a final volume of 100 μL. After 16-20 hours at 200 rpm (5 cm orbital shaker, Kuhner AG, Switzerland), reactions were extracted with an equal volume of acetonitrile, centrifuged to remove precipitated proteins and conversion assessed by UPLC-MS analysis.
(§2) UPLC data was obtained as follows:
(§3) Column: Acquity UPLC BEH Shield RP18 1.7 μm 2.1 mm i.d. 50 mm length
(§4) Solvents: H2O, B: Acetonitrile, both with 0.1% Formic acid
(§5) Detector: Waters Acquity UPLC PDA (UV-Vis detection) and Waters Acquity UPLC QDA (MS)
Illustrative results for the hydroxylation of diclofenac by CYP450aluC09 and selected T291x mutants are summarised below in Table 3 with representative chromatograms resented in FIG. 3a-c; retention times: diclofenac 1.85-1.88 minutes, 5-hydroxydiclofenac 1.60-1.63 minutes, 4′-hydroxydiclofenac 1.65-1.68 minutes, 4′,5-dihydroxydiclofenac 1.40-1.42 minutes. The chromatographic retention times and mass spectra coincided with those of authentic samples.

Molecule | 4′,5-dihydroxy-diclofenac 1.38 mins [%] | 4′-hydroxy-diclofenac (1) 1.62 mins [%] | 5-hydroxy-diclofenac (2) 1.58 mins [%] | Diclofenac (Substrate) 1.81 mins [%]
B1 | 1.3 | 35.3 | 10.4 | 53.6
B2 | 2.4 | 50.0 | 14.2 | 34.8
B3 | 3.1 | 50.1 | 13.7 | 34.8
B4 | 2.3 | 25.3 | 25.1 | 48.3

Same assay, conditions: diclofenac; ratio of UV peak areas at 275nm

Molecule | Hydroxylated Ratio hydroxy 1:hydroxy 2
B1 | 3.4
B2 | 3.5
B3 | 3.7
B4 | 1.0

Experiment: Hydroxylation of flufenamic acid catalysed by cytochrome P450 aluC09 and mutants
Type: biochemical
Conditions: % by UV peak area at 275 nm; 0.125 mg/ml substrate, 27° C., 16-20 hours
Procedure: as §1, §2, §3, §4, §5
Flufenamic acid elutes at 1.93 minutes, hydroxy-flufenamic acid 1 elutes at 1.68 minutes and hydroxy-flufenamic acid 2 elutes at 1.65 minutes.

Molecule | Flufenamic Acid (Substrate) 1.93 mins [%] | Hydroxy-Flufenamic Acid (1) 1.69 mins [%] | Hydroxy-Flufenamic Acid (2) 1.65 mins [%]
B1 | 94.0 | 3.8 | 2.2
B2 | 90.4 | 5.8 | 3.8
B3 | 93.6 | 4.4 | 2.0
B4 | 94.7 | 3.4 | 1.9

Same assay, conditions: flufenamic acid; ratio of UV peak areas at 275 nm

Molecule | Hydroxylated Ratio 1:2
B1 | 1.7
B2 | 1.5
B3 | 2.2
B4 | 1.8

Experiment: Hydroxylation of aceclofenac catalysed by cytochrome P450 aluC09 and mutants
Type: biochemical
Conditions: % by UV peak area at 275 nm; 0.125 mg/ml substrate, 27° C., 16-20 hours
Procedure: as §1, §2, §3, §4, §5
Chromatograms are provided in FIGS. 5a-c; aceclofenac elutes at 1.80 minutes, hydroxy-aceclofenac acid 1 elutes at 1.64 minutes, hydroxy-aceclofenac acid 2 elutes at 1.60 minutes and dihydroxy-aceclofenac elutes at 1.42 minutes.

Molecule | Aceclofenac (Substrate) (1.80 mins) [%] | Dihydroxy-Aceclofenac (1.42 mins) [%] | Hydroxy-Aceclofenac (1) (1.64 min) [%] | Hydroxy-Aceclofenac (2) (1.60 min) [%]
B1 | 36.6 | 21.3 | 15.2 | 26.8
B2 | 6.7 | 48.3 | 6.5 | 38.5
B3 | 4.2 | 35.1 | 33.1 | 27.6
B4 | 17.5 | 35.2 | 6.3 | 41.0

Same assay, conditions: aceclofenac; ratio of UV peak areas at 275 nm

Molecule | Hydroxylated Ratio 2:1
B1 | 1.8
B2 | 5.9
B3 | 0.8
B4 | 6.5

Experiment: Hydroxylation / de-N-ethylation of napropamide catalysed by cytochrome P450 aluC09 and mutants
Type: biochemical
Conditions: % by UV peak area at 275 nm; 0.125 mg/ml substrate, 27° C., 16-20 hours
Procedure: as §1, §2, §3, §4, §5
Napropamide elutes at 1.76 minutes, unidentified metabolite (−2 Da) elutes at 1.90 minutes, desethyl-napropamide elutes at 1.62 minutes, hydroxy-napropamide 1 elutes at 1.53 minutes and hydroxy-napropamide 2 elutes at 1.52 minutes and the desethyl-hydroxy-napropamide product elutes at 1.41 minutes.

Molecule | Desethyl Napropamide (1.62 min) [%] | Desethyl-hydroxy-Napropamide (1.41 min) [%] | Hydroxy-Napropamide (1) (1.53 min) [%] | Hydroxy-Napropamide (2), (1.52 min) [%] | M-2Da (unidentified) (1.89 min) [%] | Napropamide (substrate) [%]
B1 | 40.7 | 5.3 | 3.4 | 3.7 | 5.3 | 44.0
B2 | 50.1 | 4.9 | 2.3 | 3.9 | 6.1 | 34.3
B3 | 56.2 | 7.6 | 2.1 | 6.1 | 4.7 | 25.3
B4 | 36.6 | 8.7 | 1.5 | 3.1 | 6.7 | 47.6

Same assay, conditions: napropamide; ratio of UV peak areas

Molecule | Hydroxylated Ratio 2:1
B1 | 1.1
B2 | 1.7
B3 | 2.9
B4 | 2.1

Experiment: O-demethylation of indomethacin catalysed by cytochrome P450 aluC09 and mutants
Type: biochemical
Conditions: % by UV peak area at 275 nm; 0.125 mg/ml substrate, 27° C., 16-20 hours
Procedure: as §1, §2, §3, §4, §5

Molecule | Indomethacin (1.74 mins) [%] | O-demethyl-Indomethacin (1.52 mins) [%]
B1 | 96.2 | 3.8
B2 | 93.5 | 6.5
B3 | 89.2 | 10.8
B4 | 92.6 | 7.4

Experiment: Metabolism of ritonavir by P450 aluC09 and mutants
Type: biochemical
Conditions: percent of substrate being converted; 0.125 mg/ml, 27° C., 16-20 hours; [CYP] per enzyme as in Table 8
Procedure: as §1
(§6) However, of particular note when considering P450 concentration are the results for mutants M12, M20 and M34, as well as the deleterious impact on the range of substrate utility in mutants M39 and M40.

Molecule | % conversions (avg) Ritonavir [%]
B1 | 50.3
B2 | 65.4
B3 | 100
B4 | 57.3

Experiment: Metabolism of celecoxib by P450 aluC09 and mutants
Type: biochemical
Conditions: percent of substrate being converted; 0.125 mg/ml, 27° C., 16-20 hours; [CYP] per enzyme as in Table 8
Procedure: as §1, §6

Molecule | % conversions (avg) Celecoxib [%]
B1 | 6.8
B2 | 4.5
B3 | 2.2
B4 | 3.2

Experiment: Metabolism of epothilone B by P450 aluC09 and mutants
Type: biochemical
Conditions: percent of substrate being converted; 0.125 mg/ml, 27° C., 16-20 hours; [CYP] per enzyme as in Table 8
Procedure: as §1, §6

Molecule | % conversions (avg) Epothilone B [%]
B1 | 30.7
B2 | 4.5
B3 | 21.1
B4 | 8.5

Experiment: Metabolism of buparvaquone by P450 aluC09 and mutants
Type: biochemical
Conditions: percent of substrate being converted; 0.125 mg/ml, 27° C., 16-20 hours; [CYP] per enzyme as in Table 8
Procedure: as §1, §6

Molecule | % conversions (avg) Buparvaquone [%]
B1 | 11.6
B2 | 17.1
B3 | 15.4
B4 | 15.8

Experiment: Metabolism of BIRB796 by P450 aluC09 and mutants
Type: biochemical
Conditions: percent of substrate being converted; 0.125 mg/ml, 27° C., 16-20 hours; [CYP] per enzyme as in Table 8
Procedure: as §1, §6

Molecule | % conversions (avg) BIRB796 [%]
B1 | 18
B2 | 16.6
B3 | 22.4

Experiment: Metabolism of bosentan by P450 aluC09 and mutants
Type: biochemical
Conditions: percent of substrate being converted; 0.125 mg/ml, 27° C., 16-20 hours; [CYP] per enzyme as in Table 8
Procedure: as §1, §6

Molecule | % conversions (avg) Bosentan [%]
B1 | 99
B4 | 100

Experiment: Metabolism of valsartan by P450 aluC09 and mutants
Type: biochemical
Conditions: percent of substrate being converted; 0.125 mg/ml, 27° C., 16-20 hours; [CYP] per enzyme as in Table 8
Procedure: as §1, §6

Molecule | % conversions (avg) Valsartan [%]
B1 | 43.2
B3 | 13.1
B4 | 26

Experiment: Metabolism of ruxolitinib by P450 aluC09 and mutants
Type: biochemical
Conditions: percent of substrate being converted; 0.125 mg/ml, 27° C., 16-20 hours; [CYP] per enzyme as in Table 8
Procedure: as §1, §6

Molecule | % conversions (avg) Ruxolitinib [%]
B2 | 50.8
B3 | 70.7
B4 | 35.7

Experiment: Metabolism of 4-pyrrolidylacetophenone by P450 aluC09 and mutants
Type: biochemical
Conditions: percent of substrate being converted; 0.125 mg/ml, 27° C., 16-20 hours; [CYP] per enzyme as in Table 8
Procedure: as §1, §6

Molecule | % conversions (avg) 4-pyrrolidylacetophenone [%]
B1 | 7.3
B2 | 0.7
B4 | 21.4

Experiment: Metabolism of tivantinib by P450 aluC09 and mutants
Type: biochemical
Conditions: percent of substrate being converted; 0.125 mg/ml, 27° C., 16-20 hours; [CYP] per enzyme as in Table 8
Procedure: as §1, §6

Molecule | % conversions (avg) Tivantinib [%]
B1 | 59.1
B2 | 26.1
B3 | 22.2
B4 | 34.2

Experiment: Metabolism of tofacitinib by P450 aluC09 and mutants
Type: biochemical
Conditions: percent of substrate being converted; 0.125 mg/ml, 27° C., 16-20 hours; [CYP] per enzyme as in Table 8
Procedure: as §1, §6

Molecule | % conversions (avg) Tofacitinib [%]
B1 | 3.1
B2 | 0
B3 | 4.5
B4 | 1.4
